Data as given in IntAct's records for PubMed 36373674.

B1: SMC5-SMC6 complex localization factor protein 1 (Homo sapiens), Q9BQI6 (parent)
chain: MEDGTPKHIIQMTGFKMEEKEALVKLLLKLDCTFIKSEKYKNCTHLIAERLCKSEKFLAACAAGKWILTKDYIIHSAKSGRWLDETTYEWGYKIEKDSRYSPQMQSAPKRWREELKRTGAPGAFHRWKVVLLVRTDKRSDSLIRVLEAGKANVILPKSSPSGITHVIASNARIKAEKEKDNFKAPFYPIQYLGDFLLEKEIQNDEDSQTNSVWTEHSNEETNKDFRKDAGFLEMKGALRETMYRTQKEMQNHEDVNVGSILIQHHKKEKFSGSSKDLKFVKMRNTFGSHTYENQKEIKKKDEDIQRSYTLRRKRKKGKESNCKKGVEHEKIKSTLRRHIYNRDQKEMKNSIFAEYAKESKAMAIKTDVDVVEIKNTLRKHIYRAQAVRYNCIRIDKQPVYNVEVKNAEFPRGVLNLIESLIEGHFFKEAIEELSTLQAHYIPPVCVLHALLENVLQDNIDTFSGRYFHILSALLHLHPPWKSPAMSRYYLELFQCPTCMKGAWSLVEVLIRSCLFNESFCHQISENIGSKVLHLTLLKFFFNLIESEVQHLSQKLYDWSDSQNLKITGKAMLLEIFWSGSETSGLLTKPVNMLLEWTIYSHKEKFKSNDVFKHELAYLLAGILGAAIDYWIFLGLKMGRNVMRHMSDDLGSYVSLSCDDFSSQELEIFICSFSSSWLQMFVAEAVFKKLCLQSSGSVSSEPLSLQKMVYSYLPALGKTGVLGSGKIQVSKKIGQRPCFDSQRTLLMLNGTKQKQVEGLPELLDLNLAKCSSSLKKLKKKSEGELSCSKENCPSVVKKMNFHKTNLKGETALHRACINNQVEKLILLLSLPGIDINVKDNAGWTPLHEACNYGNTVCVQEILQRCPEVDLLTQVDGVTPLHDALSNGHVEIGKLLLQHGGPVLLQQRNAKGELPLDYVVSPQIKEELFAITKIEDTVENFHAQAEKHFHYQQLEFGSFLLSRMLLNFCSIFDLSSEFILASKGLTHLNELLMACKSHKETTSVHTDWLLDLYAGNIKTLQKLPHILKELPENLKVCPGVHTEALMITLEMMCRSVMEFS
partner: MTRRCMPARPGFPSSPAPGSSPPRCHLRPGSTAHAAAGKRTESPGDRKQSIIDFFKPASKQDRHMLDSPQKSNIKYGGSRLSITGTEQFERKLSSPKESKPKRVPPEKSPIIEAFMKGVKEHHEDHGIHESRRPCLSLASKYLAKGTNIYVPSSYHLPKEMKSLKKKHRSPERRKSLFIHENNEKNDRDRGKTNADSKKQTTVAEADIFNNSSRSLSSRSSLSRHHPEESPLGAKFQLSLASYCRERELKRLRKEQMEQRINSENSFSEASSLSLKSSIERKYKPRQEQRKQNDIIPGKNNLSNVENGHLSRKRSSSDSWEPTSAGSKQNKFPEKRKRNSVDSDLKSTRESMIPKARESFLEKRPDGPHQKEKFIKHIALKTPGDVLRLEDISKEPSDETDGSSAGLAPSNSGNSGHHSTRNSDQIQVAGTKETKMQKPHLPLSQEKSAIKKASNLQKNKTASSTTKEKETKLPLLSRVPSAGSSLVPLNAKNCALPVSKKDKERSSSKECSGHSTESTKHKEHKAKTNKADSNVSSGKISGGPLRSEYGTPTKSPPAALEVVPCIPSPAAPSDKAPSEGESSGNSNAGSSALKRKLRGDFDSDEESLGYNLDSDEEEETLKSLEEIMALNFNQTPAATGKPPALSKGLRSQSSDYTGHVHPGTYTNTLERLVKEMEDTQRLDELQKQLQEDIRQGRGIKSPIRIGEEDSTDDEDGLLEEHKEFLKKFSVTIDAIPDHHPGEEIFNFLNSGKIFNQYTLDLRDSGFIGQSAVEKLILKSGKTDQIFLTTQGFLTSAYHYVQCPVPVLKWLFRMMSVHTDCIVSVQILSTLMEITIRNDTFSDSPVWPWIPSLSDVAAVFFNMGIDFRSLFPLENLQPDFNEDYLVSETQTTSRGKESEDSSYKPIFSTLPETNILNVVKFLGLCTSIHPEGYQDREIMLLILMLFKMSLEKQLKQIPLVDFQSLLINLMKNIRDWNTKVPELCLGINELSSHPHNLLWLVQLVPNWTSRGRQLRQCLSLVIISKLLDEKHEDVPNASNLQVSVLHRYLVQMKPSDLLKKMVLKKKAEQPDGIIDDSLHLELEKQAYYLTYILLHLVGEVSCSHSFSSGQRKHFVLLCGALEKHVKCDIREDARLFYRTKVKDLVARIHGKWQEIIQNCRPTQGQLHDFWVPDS
B2: SMC5-SMC6 complex localization factor protein 2 (Homo sapiens), Q8IX21 (parent)
chain: B1 partner
partner: B1 chain

Variants of: B1
Conditions: with slf2_human SLF2, Q8IX21

Question: How did the “effect of a mutation on the interaction” value turn out when A1042D;I1045E;M1049E was run?
Answer: disrupting interaction strength

Question: Which “effect of a mutation on the interaction” value does the source give for F957E;L964E here?
Answer: disrupting interaction strength

Question: For G464D;H468E;A472D;L476E, which “effect of a mutation on the interaction” value is on record?
Answer: disrupting interaction strength

Variants of: B2
Conditions: with slf1_human SLF1, Q9BQI6

Question: C820W;I821W was tested. Which “effect of a mutation on the interaction” value did it give?
Answer: with no effect

Question: With M831R;I835R as the variant, how does the “effect of a mutation on the interaction” value read?
Answer: disrupting interaction strength

Question: Which “effect of a mutation on the interaction” value does the source give for P957D;V959D;W1006A here?
Answer: disrupting interaction strength

Question: L775E;F786E;F792E was tested. Which “effect of a mutation on the interaction” value did it give?
Answer: disrupting interaction strength
